US7432093B2, “Soluble, functional apoptotic protease-activating factor 1 fragments” (The Trustees of Princeton University, priority 2004, dated 2008)
Numbering of substitutions follows the chain as printed. Names may count otherwise.

B1: 1-554: recombinant Apaf-1 fragment, residues 1-554 of SEQ ID NO: 1 (protein, listed as Homo sapiens)
chain: MDAKARNCLLQHREALEKDIKTSYIMDHMISDGFLTISEEEKVRNEPTQQQRAAMLIKMILKKDNDSYVSFYNALLHEGYKDLAALLHDGIPVVSSSSGKDSVSGITSYVRTVLCEGGVPQRPVVFVTRKKLVNAIQQKLSKLKGEPGWVTIHGMAGCGKSVLAAEAVRDHSLLEGCFPGGVHWVSVGKQDKSGLLMKLQNLCTRLDQDESFSQRLPLNIEEAKDRLRILMLRKHPRSLLILDDVWDSWVLKAFDSQCQILLTTRDKSVTDSVMGPKYVVPVESSLGKEKGLEILSLFVNMKKADLPEQAHSIIKECKGSPLVVSLIGALLRDFPNRWEYYLKQLQNKQFKRIRKSSSYDYEALDEAMSISVEMLREDIKDYYTDLSILQKDVKVPTKVLCILWDMETEEVEDILQEFVNKSLLFCDRNGKSFRYYLHDLQVDFLTEKNCSQLQDLHKKIITQFQRYHQPHTLSPDQEDCMYWYNFLAYHMASAKMHKELCALMFSLDWIKAKTELVGPAHLIHEFVEYRHILDEKDCAVSENFQEFLSLNGHL
B2: 1-349: recombinant Apaf-1 fragment, residues 1-349 of SEQ ID NO: 1 (protein, listed as Homo sapiens)
chain: MDAKARNCLLQHREALEKDIKTSYIMDHMISDGFLTISEEEKVRNEPTQQQRAAMLIKMILKKDNDSYVSFYNALLHEGYKDLAALLHDGIPVVSSSSGKDSVSGITSYVRTVLCEGGVPQRPVVFVTRKKLVNAIQQKLSKLKGEPGWVTIHGMAGCGKSVLAAEAVRDHSLLEGCFPGGVHWVSVGKQDKSGLLMKLQNLCTRLDQDESFSQRLPLNIEEAKDRLRILMLRKHPRSLLILDDVWDSWVLKAFDSQCQILLTTRDKSVTDSVMGPKYVVPVESSLGKEKGLEILSLFVNMKKADLPEQAHSIIKECKGSPLVVSLIGALLRDFPNRWEYYLKQLQNKQ
B3: 1-589: recombinant Apaf-1 fragment, residues 1-589 of SEQ ID NO: 1 (protein, listed as Homo sapiens)
chain: MDAKARNCLLQHREALEKDIKTSYIMDHMISDGFLTISEEEKVRNEPTQQQRAAMLIKMILKKDNDSYVSFYNALLHEGYKDLAALLHDGIPVVSSSSGKDSVSGITSYVRTVLCEGGVPQRPVVFVTRKKLVNAIQQKLSKLKGEPGWVTIHGMAGCGKSVLAAEAVRDHSLLEGCFPGGVHWVSVGKQDKSGLLMKLQNLCTRLDQDESFSQRLPLNIEEAKDRLRILMLRKHPRSLLILDDVWDSWVLKAFDSQCQILLTTRDKSVTDSVMGPKYVVPVESSLGKEKGLEILSLFVNMKKADLPEQAHSIIKECKGSPLVVSLIGALLRDFPNRWEYYLKQLQNKQFKRIRKSSSYDYEALDEAMSISVEMLREDIKDYYTDLSILQKDVKVPTKVLCILWDMETEEVEDILQEFVNKSLLFCDRNGKSFRYYLHDLQVDFLTEKNCSQLQDLHKKIITQFQRYHQPHTLSPDQEDCMYWYNFLAYHMASAKMHKELCALMFSLDWIKAKTELVGPAHLIHEFVEYRHILDEKDCAVSENFQEFLSLNGHLLGRQPFPNIVQLGLCEPETSEVYQQAKLQAKQEVD
B4: 1-591 K160R: Apaf-1 fragment 1-591 of SEQ ID NO: 1 with K160R substitution (protein, listed as Homo sapiens)
chain: MDAKARNCLLQHREALEKDIKTSYIMDHMISDGFLTISEEEKVRNEPTQQQRAAMLIKMILKKDNDSYVSFYNALLHEGYKDLAALLHDGIPVVSSSSGKDSVSGITSYVRTVLCEGGVPQRPVVFVTRKKLVNAIQQKLSKLKGEPGWVTIHGMAGCGRSVLAAEAVRDHSLLEGCFPGGVHWVSVGKQDKSGLLMKLQNLCTRLDQDESFSQRLPLNIEEAKDRLRILMLRKHPRSLLILDDVWDSWVLKAFDSQCQILLTTRDKSVTDSVMGPKYVVPVESSLGKEKGLEILSLFVNMKKADLPEQAHSIIKECKGSPLVVSLIGALLRDFPNRWEYYLKQLQNKQFKRIRKSSSYDYEALDEAMSISVEMLREDIKDYYTDLSILQKDVKVPTKVLCILWDMETEEVEDILQEFVNKSLLFCDRNGKSFRYYLHDLQVDFLTEKNCSQLQDLHKKIITQFQRYHQPHTLSPDQEDCMYWYNFLAYHMASAKMHKELCALMFSLDWIKAKTELVGPAHLIHEFVEYRHILDEKDCAVSENFQEFLSLNGHLLGRQPFPNIVQLGLCEPETSEVYQQAKLQAKQEVDNG
B5: Full Length Apaf-1: full-length (ca. 140-kilodalton) human Apaf-1 protein expressed in E. coli (protein, listed as Homo sapiens)
chain: B4 chain with R160K
B6: C115S: point mutation C115S made in SEQ ID NO: 1 (protein, listed as Homo sapiens)
chain: B4 chain with C115S, R160K
B7: 1-286: recombinant Apaf-1 fragment, residues 1-286 of SEQ ID NO: 1 (protein, listed as Homo sapiens)
chain: MDAKARNCLLQHREALEKDIKTSYIMDHMISDGFLTISEEEKVRNEPTQQQRAAMLIKMILKKDNDSYVSFYNALLHEGYKDLAALLHDGIPVVSSSSGKDSVSGITSYVRTVLCEGGVPQRPVVFVTRKKLVNAIQQKLSKLKGEPGWVTIHGMAGCGKSVLAAEAVRDHSLLEGCFPGGVHWVSVGKQDKSGLLMKLQNLCTRLDQDESFSQRLPLNIEEAKDRLRILMLRKHPRSLLILDDVWDSWVLKAFDSQCQILLTTRDKSVTDSVMGPKYVVPVESSL
B8: 1-469: recombinant Apaf-1 fragment, residues 1-469 of SEQ ID NO: 1 (protein, listed as Homo sapiens)
chain: MDAKARNCLLQHREALEKDIKTSYIMDHMISDGFLTISEEEKVRNEPTQQQRAAMLIKMILKKDNDSYVSFYNALLHEGYKDLAALLHDGIPVVSSSSGKDSVSGITSYVRTVLCEGGVPQRPVVFVTRKKLVNAIQQKLSKLKGEPGWVTIHGMAGCGKSVLAAEAVRDHSLLEGCFPGGVHWVSVGKQDKSGLLMKLQNLCTRLDQDESFSQRLPLNIEEAKDRLRILMLRKHPRSLLILDDVWDSWVLKAFDSQCQILLTTRDKSVTDSVMGPKYVVPVESSLGKEKGLEILSLFVNMKKADLPEQAHSIIKECKGSPLVVSLIGALLRDFPNRWEYYLKQLQNKQFKRIRKSSSYDYEALDEAMSISVEMLREDIKDYYTDLSILQKDVKVPTKVLCILWDMETEEVEDILQEFVNKSLLFCDRNGKSFRYYLHDLQVDFLTEKNCSQLQDLHKKIITQFQRYHQ
B9: 94-591: recombinant Apaf-1 fragment, residues 94-591 of SEQ ID NO: 1 (protein, listed as Homo sapiens)
chain: VSSSSGKDSVSGITSYVRTVLCEGGVPQRPVVFVTRKKLVNAIQQKLSKLKGEPGWVTIHGMAGCGKSVLAAEAVRDHSLLEGCFPGGVHWVSVGKQDKSGLLMKLQNLCTRLDQDESFSQRLPLNIEEAKDRLRILMLRKHPRSLLILDDVWDSWVLKAFDSQCQILLTTRDKSVTDSVMGPKYVVPVESSLGKEKGLEILSLFVNMKKADLPEQAHSIIKECKGSPLVVSLIGALLRDFPNRWEYYLKQLQNKQFKRIRKSSSYDYEALDEAMSISVEMLREDIKDYYTDLSILQKDVKVPTKVLCILWDMETEEVEDILQEFVNKSLLFCDRNGKSFRYYLHDLQVDFLTEKNCSQLQDLHKKIITQFQRYHQPHTLSPDQEDCMYWYNFLAYHMASAKMHKELCALMFSLDWIKAKTELVGPAHLIHEFVEYRHILDEKDCAVSENFQEFLSLNGHLLGRQPFPNIVQLGLCEPETSEVYQQAKLQAKQEVDNG

Type: physicochemical, E. coli
Procedure: Preferably, solubility of the fragment is assessed in a lysate of a bacterial culture used to produce the fragment at a concentration of at least 1 milligram per liter of bacterial culture.
All constructs for protein expression were generated using a standard PCR-based cloning strategy, and the identity of individual clones was verified by double-stranded plasmid sequencing. A soluble Apaf-1 fragment (residues 1-591, sequence (SEQ ID NO: 1) shown in FIG. 1) was over-expressed in Escherichia coli strain BL21(DE3) using plasmid vector pET29 having the nucleotide sequence described by Jiang et al. (2000, J. Biol. Chem. 275:31199-31203) operatively ligated therein. The coding sequence included an additional sequence encoding eight amino acid residues at its carboxy-terminal end (i.e., linked to residue 591 in the translated protein). These residues (Leu-Glu-His6) included a nickel-binding hexa-histidine sequence used for metal affinity chromatographic purification of the expressed protein. Soluble Apaf-1 was purified from the cell lysate using a Ni-NTA (nitrilotriacetic acid-ligated nickel; Qiagen) chromatography column. Dithiothreitol (DTT) and ethylenediamine tetraacetic acid (EDTA) were added to the eluted fraction in final concentrations of 5 millimolar each. After incubation for 30 minutes on ice, the protein solution was applied to an anion-exchange column (Source-15Q, Pharmacia) for further purification.

Molecule	Solubility	solubility and solution behavior (in words)
B1	++	good solubility and solution behavior
B2	++	soluble to significant extent
B3	++++	
B4	++	without significant loss of activity or solubility
B5	−	
B6		without significant loss of activity or solubility
B7		largely insoluble
B8	+	
B9	++	
